Article PMC9156758, “Cryo-EM structures of human A2ML1 elucidate the protease-inhibitory mechanism of the A2M family” (Nature Communications, 2022)

How the values were obtained:
Experiment in all cases: cell-based or functional assay
[1] = target: T1, Human neutrophil elastase (HNE) (human, UniProt P08246 30-267)
T1 sequence (looked up): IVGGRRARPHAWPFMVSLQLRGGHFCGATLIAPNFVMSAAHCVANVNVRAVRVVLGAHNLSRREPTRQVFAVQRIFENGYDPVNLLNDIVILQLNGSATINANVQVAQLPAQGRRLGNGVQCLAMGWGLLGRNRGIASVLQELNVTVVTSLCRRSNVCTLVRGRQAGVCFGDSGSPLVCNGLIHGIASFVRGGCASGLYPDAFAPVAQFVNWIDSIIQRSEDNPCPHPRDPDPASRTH

[2] = target: T2, Thermolysin from Geobacillus stearothermophilus (Geobacillus stearothermophilus, UniProt P00800 233-548)
T2 sequence (looked up): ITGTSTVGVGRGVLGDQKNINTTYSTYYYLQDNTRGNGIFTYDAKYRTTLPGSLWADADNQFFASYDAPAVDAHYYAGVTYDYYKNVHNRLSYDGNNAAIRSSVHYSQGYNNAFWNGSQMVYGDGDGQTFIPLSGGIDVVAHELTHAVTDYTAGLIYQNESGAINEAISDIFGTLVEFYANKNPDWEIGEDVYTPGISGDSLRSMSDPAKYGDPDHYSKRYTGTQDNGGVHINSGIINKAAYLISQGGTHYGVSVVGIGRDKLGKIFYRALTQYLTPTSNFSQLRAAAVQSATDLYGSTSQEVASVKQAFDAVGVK

[3] = target: Bovine pancreatic α-chymotrypsin (bovine)

inhibition of β-casein-cleaving activity at a 4:1 A2ML1:protease molar ratio [1]: ~10 % inhibited
inhibition of thermolysin's β-casein-cleaving activity, A2ML1:thermolysin molar ratios up to 4:1, without BAPN [2]: ~95 % inhibited
inhibition of β-casein-cleaving activity at a 4:1 A2ML1:protease molar ratio [3]: ~65 % inhibited
B1: Human alpha-2 macroglobulin-like 1 (A2ML1), recombinant wild type, native (natural protein, UniProt A8K2U0 18-1454, looked up)
chain: EELPNYLVTLPARLNFPSVQKVCLDLSPGYSDVKFTVTLETKDKTQKLLEYSGLKKRHLHCISFLVPPPAGGTEEVATIRVSGVGNNISFEEKKKVLIQRQGNGTFVQTDKPLYTPGQQVYFRIVTMDSNFVPVNDKYSMVELQDPNSNRIAQWLEVVPEQGIVDLSFQLAPEAMLGTYTVAVAEGKTFGTFSVEEYVLPKFKVEVVEPKELSTVQESFLVKICCRYTYGKPMLGAVQVSVCQKANTYWYREVEREQLPDKCRNLSGQTDKTGCFSAPVDMATFDLIGYAYSHQINIVATVVEEGTGVEANATQNIYISPQMGSMTFEDTSNFYHPNFPFSGKIRVRGHDDSFLKNHLVFLVIYGTNGTFNQTLVTDNNGLAPFTLETSGWNGTDVSLEGKFQMEDLVYNPEQVPRYYQNAYLHLRPFYSTTRSFLGIHRLNGPLKCGQPQEVLVDYYIDPADASPDQEISFSYYLIGKGSLVMEGQKHLNSKKKGLKASFSLSLTFTSRLAPDPSLVIYAIFPSGGVVADKIQFSVEMCFDNQVSLGFSPSQQLPGAEVELQLQAAPGSLCALRAVDESVLLLRPDRELSNRSVYGMFPFWYGHYPYQVAEYDQCPVSGPWDFPQPLIDPMPQGHSSQRSIIWRPSFSEGTDLFSFFRDVGLKILSNAKIKKPVDCSHRSPEYSTAMGAGGGHPEAFESSTPLHQAEDSQVRQYFPETWLWDLFPIGNSGKEAVHVTVPDAITEWKAMSFCTSQSRGFGLSPTVGLTAFKPFFVDLTLPYSVVRGESFRLTATIFNYLKDCIRVQTDLAKSHEYQLESWADSQTSSCLCADDAKTHHWNITAVKLGHINFTISTKILDSNEPCGGQKGFVPQKGRSDTLIKPVLVKPEGVLVEKTHSSLLCPKGKVASESVSLELPVDIVPDSTKAYVTVLGDIMGTALQNLDGLVQMPSGCGEQNMVLFAPIIYVLQYLEKAGLLTEEIRSRAVGFLEIGYQKELMYKHSNGSYSAFGERDGNGNTWLTAFVTKCFGQAQKFIFIDPKNIQDALKWMAGNQLPSGCYANVGNLLHTAMKGGVDDEVSLTAYVTAALLEMGKDVDDPMVSQGLRCLKNSATSTTNLYTQALLAYIFSLAGEMDIRNILLKQLDQQAIISGESIYWSQKPTPSSNASPWSEPAAVDVELTAYALLAQLTKPSLTQKEIAKATSIVAWLAKQHNAYGGFSSTQDTVVALQALAKYATTAYMPSEEINLVVKSTENFQRTFNIQSVNRLVFQQDTLPNVPGMYTLEASGQGCVYVQTVLRYNILPPTNMKTFSLSVEIGKARCEQPTSPRSLTLTIHTSYVGSRSSSNMAIVEVKMLSGFSPMEGTNQLLLQQPLVKKVEFGTDTLNIYLDELIKNTQTYTFTISQSVLVTNLKPATIKVYDYYLPDEQATIQYSDPCE
modifications: internal thioester Cys970-Gln973; N-glycans (Asn120, Asn328, Asn857 named)
